Reference: publication PMC9126950
Where “and” joins values, the source holds several entries; their conditions need not be identical. Equal values may be shown once.

Target: VHH-72-C13 (llama)
Assay: electrochemical titration (differential pulse voltammetry)

VHH-72-C13 (llama), sequence (VHH, as listed by the source): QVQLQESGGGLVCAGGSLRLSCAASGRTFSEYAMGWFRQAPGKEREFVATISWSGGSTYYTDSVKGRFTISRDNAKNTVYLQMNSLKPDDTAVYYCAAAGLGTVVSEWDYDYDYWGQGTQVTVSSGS

**Q.** Which half saturation point (Langmuir isotherm) does the source give for “SARS-CoV-2 spike receptor binding domain (RBD), recombinant (from UniProt P0DTC2 319-541) (domain or fragment)” here?
**A.** 3.7 nM and 7.5 nM
